Laboratory results from paper PMC6910826.

Molecular target: 6xHis-Zasp52-PK-FLAG (Drosophila melanogaster)
Experiment: cross-linking; purified 6xHis-Zasp52-PK-FLAG incubated with EGS or alone; SDS-PAGE and anti-Flag western blot

Chain of 6xHis-Zasp52-PK-FLAG (A1ZA47 whole entry): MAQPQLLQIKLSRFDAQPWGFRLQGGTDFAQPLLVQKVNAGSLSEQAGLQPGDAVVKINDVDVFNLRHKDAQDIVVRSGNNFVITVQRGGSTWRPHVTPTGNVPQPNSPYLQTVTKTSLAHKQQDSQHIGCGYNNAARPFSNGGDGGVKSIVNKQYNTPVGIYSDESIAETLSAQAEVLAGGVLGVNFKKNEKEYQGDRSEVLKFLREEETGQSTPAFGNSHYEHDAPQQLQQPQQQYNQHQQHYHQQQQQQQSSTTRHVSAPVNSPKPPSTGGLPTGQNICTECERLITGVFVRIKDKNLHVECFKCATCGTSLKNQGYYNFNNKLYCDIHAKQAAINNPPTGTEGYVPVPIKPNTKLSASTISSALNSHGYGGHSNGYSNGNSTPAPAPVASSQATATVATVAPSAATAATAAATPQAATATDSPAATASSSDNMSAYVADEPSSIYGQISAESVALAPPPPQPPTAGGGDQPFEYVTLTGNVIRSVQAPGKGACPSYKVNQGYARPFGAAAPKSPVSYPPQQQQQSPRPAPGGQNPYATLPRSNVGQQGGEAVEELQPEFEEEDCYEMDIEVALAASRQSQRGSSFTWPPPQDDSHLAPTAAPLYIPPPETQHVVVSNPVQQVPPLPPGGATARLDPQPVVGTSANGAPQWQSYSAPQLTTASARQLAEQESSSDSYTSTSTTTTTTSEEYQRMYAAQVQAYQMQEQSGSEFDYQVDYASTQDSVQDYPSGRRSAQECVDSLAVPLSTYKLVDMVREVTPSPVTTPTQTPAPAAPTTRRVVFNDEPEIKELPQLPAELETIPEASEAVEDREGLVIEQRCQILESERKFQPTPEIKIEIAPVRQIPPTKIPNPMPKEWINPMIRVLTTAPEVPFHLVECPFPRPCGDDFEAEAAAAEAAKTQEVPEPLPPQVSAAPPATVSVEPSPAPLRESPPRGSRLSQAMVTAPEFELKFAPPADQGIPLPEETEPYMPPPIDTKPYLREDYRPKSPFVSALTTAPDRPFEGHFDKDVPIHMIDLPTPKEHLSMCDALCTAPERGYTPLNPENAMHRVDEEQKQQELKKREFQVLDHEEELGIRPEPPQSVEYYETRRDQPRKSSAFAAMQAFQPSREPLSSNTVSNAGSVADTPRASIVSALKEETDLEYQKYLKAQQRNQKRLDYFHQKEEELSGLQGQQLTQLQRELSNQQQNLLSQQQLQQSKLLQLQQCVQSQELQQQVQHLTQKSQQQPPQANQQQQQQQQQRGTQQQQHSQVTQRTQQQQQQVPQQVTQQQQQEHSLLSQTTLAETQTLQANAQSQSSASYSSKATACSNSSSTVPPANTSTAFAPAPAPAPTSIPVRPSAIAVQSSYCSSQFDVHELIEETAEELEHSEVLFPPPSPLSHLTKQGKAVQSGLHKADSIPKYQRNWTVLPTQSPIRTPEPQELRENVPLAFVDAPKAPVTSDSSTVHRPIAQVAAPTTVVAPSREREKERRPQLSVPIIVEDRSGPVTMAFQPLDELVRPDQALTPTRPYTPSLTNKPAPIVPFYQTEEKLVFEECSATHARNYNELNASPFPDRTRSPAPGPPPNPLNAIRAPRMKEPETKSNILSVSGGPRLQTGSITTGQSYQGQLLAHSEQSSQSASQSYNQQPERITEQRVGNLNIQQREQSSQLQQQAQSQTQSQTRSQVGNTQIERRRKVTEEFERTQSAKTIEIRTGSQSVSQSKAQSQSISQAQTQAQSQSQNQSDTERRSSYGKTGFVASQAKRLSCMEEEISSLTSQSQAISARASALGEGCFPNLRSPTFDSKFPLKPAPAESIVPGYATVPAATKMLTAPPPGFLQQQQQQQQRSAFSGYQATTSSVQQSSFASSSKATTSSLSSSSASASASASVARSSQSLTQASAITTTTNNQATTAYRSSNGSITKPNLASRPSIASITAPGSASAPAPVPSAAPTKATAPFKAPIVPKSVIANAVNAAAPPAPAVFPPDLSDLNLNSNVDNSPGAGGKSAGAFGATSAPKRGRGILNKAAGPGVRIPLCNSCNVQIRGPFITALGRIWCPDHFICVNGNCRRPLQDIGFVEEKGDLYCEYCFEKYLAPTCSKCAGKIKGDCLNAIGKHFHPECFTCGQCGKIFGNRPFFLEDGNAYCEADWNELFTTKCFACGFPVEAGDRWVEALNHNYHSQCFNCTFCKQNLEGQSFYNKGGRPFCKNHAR

stoichiometry N: 2
Substance: 6xHis-Zasp52-PK-FLAG (natural protein)
